According to US12194082B2, “Compositions and methods for treatment of homocystinuria” (THE REGENTS OF THE UNIVERSITY OF COLORADO, priority 2016, dated 2025):

Tests used:
[1] = test system: Hcy, Cys; experiment: Continuous administration by ALZET osmotic pump in HO mice; type: in vivo; details: ALZET Model 2004 or 2006 pumps
Description: ALZET® osmotic pumps provide steady, controlled delivery of the 20NHS PEG-htCBS C15S for a prolonged period of time in fresh and naïve HO mice. The htCBS C15S PEGylated with ME-200GS was administrated using four different models of micro-osmotic ALZET® pumps, which continuously dispensed a volume of enzyme per hour instead of repeated subcutaneous injections: Model 1002 (0.25 μl/h), Model 2002 (0.5 μl/h), Model 2004 (0.25 μl/h), and Model 2006 (0.15 μl/h).
For pain relief, pre- and post-operatively, animals were also administered TYLENOL® (2 mg/ml) in water bottles ad libitum for 48 hours before and after surgery for implantation of the ALZET® pump. In addition, the animals received 5 mg/kg of carprofen subcutaneously every 24 hours, and for 48 hours postoperatively. For anesthesia during surgery, 5% isoflurane was administered by inhalation and maintained at 2-3% during surgery. While mice were anesthetized, they each received a medical grade ALZET® osmotic pump implanted under sterile conditions in a biological safety cabinet. Pumps were implanted subcutaneously in the loose skin area on the ventral side of the neck. Prior to implanting the pump, the mice were shaved and the skin area was prepped with BETADINE®. Pump implantation required a small surgical incision (5 mm) made with sterile scissors. […]

[2] = test system: Hcy, Cth, Cys; experiment: Plasma metabolites in I278T mice of the eye study; type: in vivo; details: 7.5 mg/kg SC 3x/week
Description: The changes in metabolite levels in plasma were measured in I278T (+/−) healthy heterozygous control mice, untreated −/− affected homozygous control mice, and 20NHS PEG-htCBS C15S-treated −/− homozygous I278T mice. The 20NHS PEG-htCBS C15S (C15S/ME-200GS)-treated mice were administered 7.5 mg/kg subcutaneously (SC) 3 times per week from the age of 2 days up to the age of 4 months. Levels measured beginning at 72 hours after the injection as mice were on the treatment from 2 days of age.

[3] = LC/MS/MS C15S activity assay of monkey plasma samples; type: in vivo, cynomolgus monkey
Excerpt: The bioanalytical method developed using LC/MS/MS for the determination of cystathionine M+4 as product of the CBS activity using cystathionine M+8 (^13C2D6) as an internal standard has been developed and validated for both monkey and human plasma samples and thus can be used to determine CBS activity in samples from pharmacokinetic and toxicology studies as well as clinical trials. The enzymatic assay was essentially performed as described in Example 1 with the following modifications. Deuterated D,L-homocysteine M+4 was used to initiate the reaction with unlabeled L-serine in the reaction mixture. After 30 min incubation at 37° C., the enzymatic reaction was stopped by acidification using 6N HCl and labeled product of the reaction (cystathionine M+4) was extracted using EZ:faast kit (Phenomenex, USA). Briefly, 50 μl of sample (calibration standard, QC sample or enzymatic reaction) was mixed in tube on ice and protected from light with 100 μl of internal standard solution (cystathionine M+8, 0.25 ng/μl) and 250 μl water. The mix was extracted with MCX cartridge columns (Waters). Eluted medium (6N ammonia in methanol) was evaporated to dryness at 45° C. The dry residue was dissolved in eluent medium of the EZ:faast kit, derivatized and liquid-liquid extracted following the kit manufacturer's protocol. The solid phase extraction was automatized with extraction plates to increase throughput and save time. Measurable concentrations of cystathionine M+4 were observed regardless of origin of the enzyme (htCBS C15S or C15S/ME-200GS present in plasma samples or controls or traces of endogenous monkey/human CBS in plasma samples). Much attention was paid to the calibration range since the incurred determinations were in the higher part of the concentration range qualified (5.00 to 1500 nM).
Tables 12-14 below show the comparison of C15S/ME-200GS specific activity determined by LC/MS/MS using D,L-homocysteine M+4 as a substrate and by radiometric assay using L-[…] as a substrate. The enzyme's specific activity is presented in mU/μl. The “n.d.” stands for “not determined”.

20NHS PEG-htCBS C15S: htCBS C15S PEGylated with ME-200GS PEG (20 kDa linear NHS ester-activated PEG)
Cys plasma levels [1]: only a modest increase | plasma levels of Hcy [1]: substantially reduced | plasma Cth ([2]; throughout the study): around 50 μM | plasma Cys ([2]; throughout the study): around 230 μM | plasma Hcy ([2]; decreased from 230 μM): about 70 μM | specific activity in plasma, LC/MS/MS assay ([3]; single IV 2 mg/kg, 0.083 h): 88.865 mU/μl | specific activity in plasma, LC/MS/MS assay ([3]; single IV 2 mg/kg, 0.167 h): 81.065 mU/μl | specific activity in plasma, LC/MS/MS assay ([3]; single IV 2 mg/kg, 0.25 h): 80.315 mU/μl | specific activity in plasma, LC/MS/MS assay ([3]; single IV 2 mg/kg, 0.5 h): 81.815 mU/μl | specific activity in plasma, LC/MS/MS assay ([3]; single IV 2 mg/kg, 1 h): 75.415 mU/μl | specific activity in plasma, LC/MS/MS assay ([3]; single IV 2 mg/kg, 2 h): 71.765 mU/μl | specific activity in plasma, LC/MS/MS assay ([3]; single IV 2 mg/kg, 4 h): 67.415 mU/μl | specific activity in plasma, LC/MS/MS assay ([3]; single IV 2 mg/kg, 8 h): 61.715 mU/μl | specific activity in plasma, LC/MS/MS assay ([3]; single IV 2 mg/kg, 24 h): 47.815 mU/μl | specific activity in plasma, LC/MS/MS assay ([3]; single IV 2 mg/kg, 72 h): 28.915 mU/μl | specific activity in plasma, LC/MS/MS assay ([3]; single IV 2 mg/kg, 120 h): 17.180 mU/μl | specific activity in plasma, LC/MS/MS assay ([3]; single IV 2 mg/kg, 192 h): 8.490 mU/μl | specific activity in plasma, LC/MS/MS assay ([3]; single SC 2 mg/kg, 2 h): 6.479 mU/μl | specific activity in plasma, LC/MS/MS assay ([3]; single SC 2 mg/kg, 4 h): 11.108 mU/μl | specific activity in plasma, LC/MS/MS assay ([3]; single SC 2 mg/kg, 8 h): 19.913 mU/μl | specific activity in plasma, LC/MS/MS assay ([3]; single SC 2 mg/kg, 48 h): 32.538 mU/μl | specific activity in plasma, LC/MS/MS assay ([3]; single SC 2 mg/kg, 72 h): 27.888 mU/μl | specific activity in plasma, LC/MS/MS assay ([3]; single SC 2 mg/kg, 96 h): 20.768 mU/μl | specific activity in plasma, LC/MS/MS assay ([3]; single SC 2 mg/kg, 120 h): 16.958 mU/μl | specific activity in plasma, LC/MS/MS assay ([3]; single SC 2 mg/kg, 192 h): 9.063 mU/μl | specific activity in plasma, LC/MS/MS assay ([3]; single SC 2 mg/kg, 240 h): 5.908 mU/μl | specific activity in plasma, LC/MS/MS assay ([3]; single SC 2 mg/kg, 336 h): 2.273 mU/μl | specific activity in plasma, LC/MS/MS assay ([3]; single SC 6 mg/kg, 1 h): 3.065 mU/μl | specific activity in plasma, LC/MS/MS assay ([3]; single SC 6 mg/kg, 2 h): 7.640 mU/μl | specific activity in plasma, LC/MS/MS assay ([3]; single SC 6 mg/kg, 4 h): 18.365 mU/μl | specific activity in plasma, LC/MS/MS assay ([3]; single SC 6 mg/kg, 8 h): 41.090 mU/μl | specific activity in plasma, LC/MS/MS assay ([3]; single SC 6 mg/kg, 24 h): 85.190 mU/μl | specific activity in plasma, LC/MS/MS assay ([3]; single SC 6 mg/kg, 48 h): 86.090 mU/μl | specific activity in plasma, LC/MS/MS assay ([3]; single SC 6 mg/kg, 72 h): 74.840 mU/μl | specific activity in plasma, LC/MS/MS assay ([3]; single SC 6 mg/kg, 96 h): 59.940 mU/μl | specific activity in plasma, LC/MS/MS assay ([3]; single SC 6 mg/kg, 120 h): 56.340 mU/μl | specific activity in plasma, LC/MS/MS assay ([3]; single SC 6 mg/kg, 192 h): 24.190 mU/μl | specific activity in plasma, LC/MS/MS assay ([3]; single SC 6 mg/kg, 240 h): 14.440 mU/μl | specific activity in plasma, LC/MS/MS assay ([3]; single SC 6 mg/kg, 336 h): 4.784 mU/μl
